We go through one molecule from publication PMC8458281, “Computational modeling and experimental validation of the EPI-X4/CXCR4 complex allows rational design of small peptide antagonists” (Communications Biology, 2021).

Holding throughout (test): flow cytometry on cells; 12G5 antibody competition on 293T cells transiently transfected with CXCR4 wt or mutants (IRES-eGFP vector), eGFP-positive cells gated; serially diluted peptide with a constant concentration of CXCR4 antibody clone 12G5, 2 h; bound antibody read; IC50 by nonlinear regression
Holding throughout (conditions): one partner purified

For one assay, the target named is T1, CXCR4 D97E + V112L (human, UniProt P61073-1 1-352, D97E | V112L).
T1 construct: human CXCR4, isoform 1 or b; also called D97E plus V112L; source: 293T cells, transiently transfected (pcDNA3.1 CXCR4-IRES-eGFP), on cells
T1 sequence (P61073 whole entry D97E/V112L, canonical isoform): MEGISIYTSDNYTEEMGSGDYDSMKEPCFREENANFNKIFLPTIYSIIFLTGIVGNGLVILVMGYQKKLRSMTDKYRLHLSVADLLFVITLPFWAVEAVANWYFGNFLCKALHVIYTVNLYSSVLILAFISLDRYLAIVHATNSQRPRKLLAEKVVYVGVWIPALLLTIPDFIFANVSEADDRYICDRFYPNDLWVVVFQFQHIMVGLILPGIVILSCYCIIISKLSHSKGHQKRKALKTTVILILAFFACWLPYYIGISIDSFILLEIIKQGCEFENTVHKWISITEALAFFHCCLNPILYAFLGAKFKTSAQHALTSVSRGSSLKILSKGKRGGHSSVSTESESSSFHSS

The target of a further assay is T2, CXCR4 D97N (human, UniProt P61073-1 1-352, D97N).
T2 construct: human CXCR4, isoform 1 or b; source: 293T cells, transiently transfected (pcDNA3.1 CXCR4-IRES-eGFP), on cells
T2 sequence (P61073 whole entry D97N, canonical isoform): as the sequence (P61073 whole entry D97E/V112L, canonical isoform) above, with E97N, L112V counted along it

The target of the next assay is T3, CXCR4 D97Q (human, UniProt P61073-1 1-352, D97Q).
T3 construct: human CXCR4, isoform 1 or b; source: 293T cells, transiently transfected (pcDNA3.1 CXCR4-IRES-eGFP), on cells
T3 sequence (P61073 whole entry D97Q, canonical isoform): as the sequence (P61073 whole entry D97E/V112L, canonical isoform) above, with E97Q, L112V counted along it

The target of the next assay is T4, CXCR4 V112A (human, UniProt P61073-1 1-352, V112A).
T4 construct: human CXCR4, isoform 1 or b; source: 293T cells, transiently transfected (pcDNA3.1 CXCR4-IRES-eGFP), on cells
T4 sequence (P61073 whole entry V112A, canonical isoform): as the sequence (P61073 whole entry D97E/V112L, canonical isoform) above, with E97D, L112A counted along it

The next assay has as its target T5, CXCR4 D97T (human, UniProt P61073-1 1-352, D97T).
T5 construct: human CXCR4, isoform 1 or b; source: 293T cells, transiently transfected (pcDNA3.1 CXCR4-IRES-eGFP), on cells

A further assay addresses T6, CXCR4 D187E (human, UniProt P61073-1 1-352, D187E).
T6 construct: human CXCR4, isoform 1 or b; source: 293T cells, transiently transfected (pcDNA3.1 CXCR4-IRES-eGFP), on cells

Another assay has as its target T7, CXCR4 D97S (human, UniProt P61073-1 1-352, D97S).
T7 construct: human CXCR4, isoform 1 or b; source: 293T cells, transiently transfected (pcDNA3.1 CXCR4-IRES-eGFP), on cells

For assay [1], the target named is T8, CXCR4 wt (transfected 293T cells) (human, UniProt P61073-1 1-352).
T8 construct: human CXCR4, isoform 1 or b; eGFP is expressed separately from an IRES, not fused; also called wild-type CXCR4; source: 293T cells, transiently transfected (pcDNA3.1 CXCR4-IRES-eGFP), on cells
T8 sequence (P61073 whole entry, the tested form may be a part, canonical isoform): as the sequence (P61073 whole entry D97E/V112L, canonical isoform) above, with E97D, L112V counted along it

A further assay has as its target T9, CXCR4 E277A (human, UniProt P61073-1 1-352, E277A).
T9 construct: human CXCR4, isoform 1 or b; source: 293T cells, transiently transfected (pcDNA3.1 CXCR4-IRES-eGFP), on cells

The target of a further assay is T10, CXCR4 V112L (human, UniProt P61073-1 1-352, V112L).
T10 construct: human CXCR4, isoform 1 or b; source: 293T cells, transiently transfected (pcDNA3.1 CXCR4-IRES-eGFP), on cells
T10 sequence (P61073 whole entry V112L, canonical isoform): as the sequence (P61073 whole entry D97E/V112L, canonical isoform) above, with E97D counted along it

The next assay addresses T11, CXCR4 V112A + L41A (human, UniProt P61073-1 1-352, L41A | V112A).
T11 construct: human CXCR4, isoform 1 or b; also called L41A plus V112A; source: 293T cells, transiently transfected (pcDNA3.1 CXCR4-IRES-eGFP), on cells

For another assay, the target named is T12, CXCR4 D97E + V112A (human, UniProt P61073-1 1-352, D97E | V112A).
T12 construct: human CXCR4, isoform 1 or b; also called D97E plus V112A; source: 293T cells, transiently transfected (pcDNA3.1 CXCR4-IRES-eGFP), on cells
T12 sequence (P61073 whole entry D97E/V112A, canonical isoform): as the sequence (P61073 whole entry D97E/V112L, canonical isoform) above, with L112A counted along it

The target of assay [2] is T13, CXCR4 D97E + V112A + L41A (human, UniProt P61073-1 1-352, L41A | D97E | V112A).
T13 construct: human CXCR4, isoform 1 or b; also called L41A plus D97E plus V112A; source: 293T cells, transiently transfected (pcDNA3.1 CXCR4-IRES-eGFP), on cells
T13 sequence (P61073 whole entry L41A/D97E/V112A, canonical isoform): as the sequence (P61073 whole entry D97E/V112L, canonical isoform) above, with L41A, L112A counted along it

T7 sequence (P61073 whole entry D97S, canonical isoform): as the sequence (P61073 whole entry D97E/V112L, canonical isoform) above, with E97S, L112V counted along it
T9 sequence (P61073 whole entry E277A, canonical isoform): as the sequence (P61073 whole entry D97E/V112L, canonical isoform) above, with E97D, L112V, E277A counted along it
T5 sequence (P61073 whole entry D97T, canonical isoform): as the sequence (P61073 whole entry D97E/V112L, canonical isoform) above, with E97T, L112V counted along it
T6 sequence (P61073 whole entry D187E, canonical isoform): as the sequence (P61073 whole entry D97E/V112L, canonical isoform) above, with E97D, L112V, D187E counted along it
T11 sequence (P61073 whole entry L41A/V112A, canonical isoform): as the sequence (P61073 whole entry D97E/V112L, canonical isoform) above, with L41A, E97D, L112A counted along it

B1: EPI-X4 (Alb408-423) (peptide)
peptide: LVRYTKKVPQVSTPTL
notes: source: synthetic peptide (Fmoc solid-phase synthesis, HPLC-purified)
For B1, the IC50 with CXCR4 D97E + V112L is 223 µM; in the assay with CXCR4 D97N, over 1000 µM; with CXCR4 D97Q, over 1000 µM; with CXCR4 V112A, 11 µM; with CXCR4 D97T, over 1000 µM; with CXCR4 D187E, 8.52 µM. The half-maximal inhibitory concentration (IC50) with CXCR4 D97S amounted to 785 µM; in [1] it was 6.99 µM; with CXCR4 E277A, 8.91 µM; with CXCR4 V112L, 41.1 µM; with CXCR4 V112A + L41A it was 78 µM; with CXCR4 D97E + V112A it was 18 µM. Moreover, in [2], the IC50 is 48.4 µM.

In general, IC50 refers to the concentration that gives 50% inhibition.
